The values below come from patent US20080182332.

Experiment in all cases: cell_activity
Data set [1] has as its system IL-1-FokI C3H F4 HAQRCG (pDAB4344) F4 zinc coordinating region HAQRCG (engineered). The conditions noted are these: pDAB4344, tobacco BY2-380.
In data set [2] the test system is IL-1-FokI C2H2 (pDAB4341/pDAB4323) (engineered). The conditions noted are these: pDAB4341, tobacco BY2-380; pDAB4323 (non-plant codon FokI) 5.53.
The subject of data set [3] is IL-1-FokI C3H F4 HTKIC (pDAB4342) F4 zinc coordinating region HTKIC (engineered). The conditions noted are these: pDAB4342, tobacco BY2-380.
Data set [4] has as its system IL-1-FokI C3H F2 HIRTGC (pDAB4346/pDAB4356) F2 zinc coordinating region HIRTGC (engineered). Particulars: pDAB4346, tobacco BY2-380 intrachromosomal recombination; pDAB4356 also active in interchromosomal HR.
In data set [5] the test system is IL-1-FokI C3H F4 HTKRCGGG (pDAB4343) F4 zinc coordinating region HTKRCGGG (engineered). The conditions noted are these: pDAB4343, tobacco BY2-380.

As for IL-1-L0-FokI site, 4 tandem repeats, the activity (GFP expression) in data set [1] is 4.39; in data set [2], 6.37; in data set [3], 0.25; in data set [4], 9.5; in data set [5], 7.57.
